For the test, the target named is IL-1 receptor (human) (UniProt P14778). The experiment in a line: cell-based or functional assay.
UniProt P14778, sequence (P14778 18-569): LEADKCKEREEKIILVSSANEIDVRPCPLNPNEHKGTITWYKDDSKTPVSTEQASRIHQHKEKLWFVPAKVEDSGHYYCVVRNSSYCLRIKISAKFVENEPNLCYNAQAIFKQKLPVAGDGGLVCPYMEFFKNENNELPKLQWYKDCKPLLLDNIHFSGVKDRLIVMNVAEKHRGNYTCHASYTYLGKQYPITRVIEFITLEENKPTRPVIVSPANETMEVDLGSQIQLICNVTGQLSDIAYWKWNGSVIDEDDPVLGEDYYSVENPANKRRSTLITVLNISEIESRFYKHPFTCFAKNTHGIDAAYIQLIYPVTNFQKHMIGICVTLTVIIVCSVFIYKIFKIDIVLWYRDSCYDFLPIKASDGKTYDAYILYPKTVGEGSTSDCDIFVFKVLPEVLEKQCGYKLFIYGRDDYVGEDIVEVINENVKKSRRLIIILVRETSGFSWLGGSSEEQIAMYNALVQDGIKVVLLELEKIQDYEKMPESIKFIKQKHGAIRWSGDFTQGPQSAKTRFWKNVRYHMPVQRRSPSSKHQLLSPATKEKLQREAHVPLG

“Kineret® (anakinra), recombinant IL-1 receptor antagonist (IL-1Ra) (from UniProt P18510 26-177) (ligand)” gave an IC50 (pM), inhibition of IL-1β induced IL-8 production in human whole blood of 53.4 pM.
